Laboratory results published in patent US20090291890A1 (published 2009).
Numbering of substitutions follows the chain as printed. Numbers in names are those of the source.

B1: Q286R/M298Q/H373F-FVIIa (enzyme)
chain: ANAFLEELRPGSLERECKEEQCSFEEAREIFKDAERTKLFWISYSDGDQCASSPCQNGGSCKDQLQSYICFCLPAFEGRNCETHKDDQLICVNENGGCEQYCSDHTGTKRSCRCHEGYSLLADGVSCTPTVEYPCGKIPILEKRNASKPQGRIVGGKVCPKGECPWQVLLLVNGAQLCGGTLINTIWVVSAAHCFDKIKNWRNLIAVLGEHDLSEHDGDEQSRRVAQVIIPSTYVPGTTNHDIALLRLHQPVVLTDHVVPLCLPERTFSERTLAFVRFSLVSGWGRLLDRGATALELQVLNVPRLMTQDCLQQSRKVGDSPNITEYMFCAGYSDGSKDSCKGDSGGPHATHYRGTWYLTGIVSWGQGCATVGFFGVYTRVSQYIEWLQKLMRSEPRPGVLLRAPFP
B2: S222A/T239I/H257A/Q286R/M298Q-FVIIa (enzyme)
chain: B1 chain with S222A, T239I, H257A, F373H
B3: H257S/Q286R/M298Q/H373F-FVIIa (enzyme)
chain: B1 chain with H257S
B4: S222A/H257S/Q286R/M298Q-FVIIa (enzyme)
chain: B1 chain with S222A, H257S, F373H
B5: FVIIa T239I (enzyme)
chain: B1 chain with T239I, R286Q, Q298M, F373H
B6: FVIIa H257S (enzyme)
chain: B1 chain with H257S, R286Q, Q298M, F373H
B7: M298Q/H373F-FVIIa (enzyme)
chain: B1 chain with R286Q
B8: S222A/T239I-FVIIa (enzyme)
chain: B1 chain with S222A, T239I, R286Q, Q298M, F373H
B9: V158D/E296V/M298Q/H373F-FVIIa (enzyme)
chain: B1 chain with V158D, R286Q, E296V
B10: FVIIa T239V (enzyme)
chain: B1 chain with T239V, R286Q, Q298M, F373H
B11: FVIIa S222A/Q286R (enzyme)
chain: B1 chain with S222A, Q298M, F373H
B12: T239I/Q286R/M298Q-FVIIa (enzyme)
chain: B1 chain with T239I, F373H
B13: S222A/Q286R/M298Q-FVIIa (enzyme)
chain: B1 chain with S222A, F373H
B14: V158D/T239I/E296V/M298Q-FVIIa (enzyme)
chain: B1 chain with V158D, T239I, R286Q, E296V, F373H
B15: S222A/T239V-FVIIa (enzyme)
chain: B1 chain with S222A, T239V, R286Q, Q298M, F373H
B16: FVIIa S222A/H257A/Q286R (enzyme)
chain: B1 chain with S222A, H257A, Q298M, F373H
B17: H257A/Q286R/M298Q-FVIIa (enzyme)
chain: B1 chain with H257A, F373H
B18: FVIIa A175S (enzyme)
chain: B1 chain with A175S, R286Q, Q298M, F373H
B19: H257S/Q286R/M298Q-FVIIa (enzyme)
chain: B1 chain with H257S, F373H
B20: T239V/Q286R/H373F-FVIIa (enzyme)
chain: B1 chain with T239V, Q298M
B21: FVIIa K109N (enzyme)
chain: B1 chain with K109N, R286Q, Q298M, F373H
B22: T239I/Q286R-FVIIa (enzyme)
chain: B1 chain with T239I, Q298M, F373H
B23: T239V/Q286R/M298Q/H373F-FVIIa (enzyme)
chain: B1 chain with T239V
B24: T239I/Q286R/M298Q/H373F-FVIIa (enzyme)
chain: B1 chain with T239I
B25: FVIIa T239I/Q286R (enzyme)
chain: B1 chain with T239I, Q298M, F373H
B26: T239I/Q286R/H373F-FVIIa (enzyme)
chain: B1 chain with T239I, Q298M
B27: Gla swap FIX/S222A/Q286R/M298Q-FVIIa (enzyme)
chain: YNSGKLEEFVQGNLERECMEEKCSFEEAREVFENTERTTEFWKQYSDGDQCASSPCQNGGSCKDQLQSYICFCLPAFEGRNCETHKDDQLICVNENGGCEQYCSDHTGTKRSCRCHEGYSLLADGVSCTPTVEYPCGKIPILEKRNASKPQGRIVGGKVCPKGECPWQVLLLVNGAQLCGGTLINTIWVVSAAHCFDKIKNWRNLIAVLGEHDLSEHDGDEQARRVAQVIIPSTYVPGTTNHDIALLRLHQPVVLTDHVVPLCLPERTFSERTLAFVRFSLVSGWGRLLDRGATALELQVLNVPRLMTQDCLQQSRKVGDSPNITEYMFCAGYSDGSKDSCKGDSGGPHATHYRGTWYLTGIVSWGQGCATVGHFGVYTRVSQYIEWLQKLMRSEPRPGVLLRAPFP
B28: FVIIa Gla swap FIX (enzyme)
chain: B27 chain with A223S, R287Q, Q299M
B29: Gla swap FIX/T128N/P129A/A175S/S222A/Q286R-FVIIa (enzyme)
chain: B27 chain with T129N, P130A, A176S, Q299M

How the values were obtained:
[1] = target: Factor X (Homo sapiens (Human)) (UniProt P00742)
Mesyl-dFPR-ACC = target: T1, Mesyl-dFPR-ACC
T1 sequence (peptide, N-terminal mesyl; D-Phe at position 1 (dF); C-terminal ACC fluorophore): FPR

[2] = target: T2, soluble tissue factor (recombinant human Coagulation Factor III/soluble tissue factor; R&D Systems) (human); experiment: SPR (Biacore T100), sTF on chip, two-state fit
T2 chain: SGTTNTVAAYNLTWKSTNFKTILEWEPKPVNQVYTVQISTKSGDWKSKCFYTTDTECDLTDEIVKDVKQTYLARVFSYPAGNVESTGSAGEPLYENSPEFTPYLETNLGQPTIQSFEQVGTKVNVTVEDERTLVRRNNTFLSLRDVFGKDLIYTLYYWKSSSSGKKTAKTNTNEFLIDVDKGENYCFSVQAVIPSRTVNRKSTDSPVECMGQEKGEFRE

Binder | kcat/KM (M^-1s^-1), TF-dependent assay [1] [M⁻¹ s⁻¹] | kcat/KM, TF-independent assay [1] [M⁻¹ s⁻¹] | Activity (µmol/sec/µmol), specific activity for mesyl-dFPR-ACC (µmol/sec/µmol) (Mesyl-dFPR-ACC) | Affinity Kd-WT/Kd-mut [2] | Kd [2] [nM] | kcat/KM, TF-dependent assay [1] [M⁻¹ s⁻¹]
B1 | 1.36e+08 | 115 | 4.59 | – | – | –
B2 | 1.14e+08 | 51.6 | 1.41 | – | – | –
B3 | 1.52e+08 | 30.4 | 2.32 | – | – | –
B4 | 1.58e+08 | – | 1.77 | – | – | –
B5 | – | – | – | 1.2 | 6.2 | –
B6 | – | – | – | 1.2 | 6.6 | –
B7 | 7.21e+07 | 96.4 | 4 | – | – | –
B8 | 3.05e+07 | 1.7 | 1.36 | – | – | –
B9 | – | 1300 | 5.6 | – | – | 1.51e+08
B10 | – | – | – | 1.5 | 5.2 | –
B11 | – | – | – | 2.3 | 3.4 | –
B12 | 1.13e+08 | 11.3 | 1.37 | – | – | –
B13 | 1.29e+08 | 253 | 1.9 | – | – | –
B14 | 1.45e+08 | 216 | 2.24 | – | – | –
B15 | 7.49e+07 | 3 | 1.91 | – | – | –
B16 | – | – | – | 1.3 | 6 | –
B17 | – | 61.5 | 2.18 | – | – | 1.13e+08
B18 | – | – | – | 0.6 | 12.3 | –
B19 | 1.4e+08 | 27.4 | 1.85 | – | – | –
B20 | 1.06e+08 | 12.2 | 1.53 | – | – | –
B21 | – | – | – | – | 10.8 | –
B22 | 5.79e+07 | 4.6 | 0.88 | – | – | –
B23 | 1.7e+08 | 40.7 | 3.07 | – | – | –
B24 | 1.08e+08 | 13.1 | 1.59 | – | – | –
B25 | – | – | – | 1 | 8 | –
B26 | 6.18e+07 | – | 1.24 | – | – | –
B27 | 2.1e+08 | 415 | 1.12 | – | – | –
B28 | – | – | – | – | 36 | –
B29 | – | 30.5 | 0.75 | – | – | 3.88e+07
